Measurements reported in patent publication US12012599B2, “Compositions and methods for modulating left-right differentiation factor (LEFTY) and bone morphogenic factor (BMP)” (CZ Biohub SF LLC, priority 2018, dated 2024).

B1: LEFTY1: left-right determination factor 1, secreted TGF-β superfamily protein; generic LEFTY may mean LEFTY1 or LEFTY2 (protein, UniProt O75610 77-366, looked up)
Left-right determination …: RFSQSFREVAGRFLALEASTHLLVFGMEQRLPPNSELVQAVLRLFQEPVPKAALHRHGRLSPRSARARVTVEWLRVRDDGSNRTSLIDSRLVSVHESGWKAFDVTEAVNFWQQLSRPRQPLLLQVSVQREHLGPLASGAHKLVRFASQGAPAGLGEPQLELHTLDLGDYGAQGDCDPEAPMTEGTRCCRQEMYIDLQGMKWAENWVLEPPGFLAYECVGTCRQPPEALAFKWPFLGPRQCIASETDSLPMIVSIKEGGRTRPQVVSLPNMRVQKCSCASDGALVPRRLQP
B2: BMP7: bone morphogenetic protein 7, BMPR2 ligand (protein)
chain: STGSKQRSQNRSKTPKNQEALRMANVAENSSSDQRQACKKHELYVSFRDLGWQDWIIAPEGYAAYYCEGECAFPLNSYMNATNHAIVQTLVHFINPETVPKPCCAPTQLNAISVLYFDDSSNVILKKYRNMVVRACGCH

What was measured:
pSMAD5 [1] = experiment: pSMAD5 immunofluorescence in MDA-MB-231; type: cell-based; details: 50 ng/mL BMP7 30 minutes, absence or presence of LEFTY 200 ng/mL
Description: (§1) FIGS. 20 and 21 are data from an experiment in which the breast cancer cell line MDA-MB-231 was plated and serum starved for 24 hours. 50 ng/mL BMP7 was added for 30 minutes to activate pSMAD5, either in the absence or presence of exogenous LEFTY (200 ng/mL). LEFTY-BMPR2 interaction, BMP7-BMPR2 interaction (as visualized by Proximity Ligation Assay, red), pSMAD5 status (As visualized by Immunofluorescence, green) were monitored and captured.
as §1, with “Breast” for “FIGS. 20 and 21 are data from an experiment in which the breast”, “(200 ng/mL) and LEFTY Antagonist (sc7408p) increasing in dose from 1x to 256x (x=25” for “(200”

mammary gland = experiment: Mammary branching after injection of LEFTY1- or BMP7-secreting L1 fibroblasts into mammary fat-pad; type: in vivo, mouse; details: secreted ligand from transplanted fibroblasts; whole mount staining
Description: FIGS. 2A-2F. Effect of LEFTY1 and BMP7 in mammary glands. […] Ducts and terminal end buds (TEB) were analyzed for BMP7 positive cells. SMA and DAPI were used to identify basal cells and for nuclear counterstain, respectively (Magnification 200×). […] Ducts and terminal end buds (TEB) were analyzed for LEFTY1 positive cells. SMA and DAPI were used to identify basal cells and for nuclear counterstain, respectively (Magnification 200×). […] Four to seven images per mouse were analyzed for quantification. […] Four to seven images per mice were analyzed for quantification. […] Data are represented as median±S.E.M. Statistical analysis, Student's T-test, *p<0.05; ***p<0.001.
FIGS. 3A-3C. Effects of LEFTY1 and BMP7 on the morphology of the mouse mammary gland. […] Four to seven images per mouse were analyzed for quantification. […] Four to seven images per mouse were analyzed for quantification. Data are represented as median±S.E.M. Statistical analysis, Student's T-test, *p<0.05; **p<0.01; ****p<0.0001.
We first developed a system where transplantation of engineered non-autologous mammary fibroblast cells secreted particular ligands (FIG. 2C). […] These opposing results were unexpected, since both LEFTY1 and BMP7 have been described to have similar suppressive roles on NODAL/SMAD2/3 signaling (Chen et al., Current biology: CB 14, 618-624 (2004) and Yeo et al., Molecular cell 7, 949-957 (2001)).

pSMAD2 = experiment: Immunofluorescent pSMAD2 positive cells in mammary glands exposed to ligand-secreting fibroblasts; type: in vivo, mouse; details: basal and luminal compartments
Description: (§2) FIGS. 4A-4I. LEFTY1 inhibits the phosphorylation of SMAD2 and SMAD5 in basal mammary epithelial cells. FIGS. 4A-4C show exemplary quantification of pSMAD2 and pSMAD5 positive cells within the luminal and basal cells of mammary glands isolated from mice that were injected with control or LEFTY1-secreting L1 fibroblasts. Immunofluorescent detection of pSMAD2 or pSMAD5 proteins was used to visualize positive cells. KRT8 and SMA were used to determine the luminal or basal cells, respectively. […] Immunofluorescent detection of pSMAD2 or pSMAD5 proteins was used to visualize positive cells. KRT8 and SMA were used to determine the luminal or basal cells, respectively. FIGS. 4H-4I show representative images of the quantified sections for pSMAD2 and pSMAD5 analysis (Magnification, 400×). Data are represented as median±S.D. Statistical analysis, Student's T-test, n.s. non-significant; ****p<0.0001.

pSMAD5 [2] = experiment: Immunofluorescent pSMAD5 positive cells in mammary glands exposed to ligand-secreting fibroblasts; type: in vivo, mouse
Description: as §2
FIGS. 5A-5H. LEFTY1 inhibits pSMAD2 and pSMAD5 in the basal mammary epithelial cells. […] KRT8 was used to stain the luminal cells and SMA for basal cells (Magnification 400×). […] Gapdh was used as a housekeeping gene. […] Ten different fields were counted per condition (n=3). Data are represented as median±S.D. Statistical analysis, (a and b) Student's T-test, * p<0.05; (h) One-way ANOVA with Dunnet's adjustment, ****p<0.0001.

mammary epithelial cells = experiment: 3D organotypic mammary organoid formation; type: cell-based, mouse; details: Wnt-dependent organoid culture
Description: FIGS. 8A-8D. Autocrine and paracrine effects of NODAL and LEFTY1 in mammary epithelial cell populations. […] The sorted cells were grown in the 3D organotypic assays to test their organoid formation potential in the presence of NODAL. […] Each dot represents an organoid (n=3). […] Data are represented as median±S.D. Statistical analysis, One-way ANOVA with Dunnet's adjustment, **p<0.01.
FIGS. 9A-9F. Opposing effects of LEFTY1 and BMP7 in mammary organoid formation. […] Data are represented as median±S.D. Statistical analysis, one-way ANOVA with Dunnet's adjustment, *p<0.05; **p<0.01; ***p<0.001.
Since LEFTY1 and BMP7 were able to affect the branching of mammary glands, we hypothesized that the LEFTY1/BMP7 signaling axis may affect the proliferation of mammary epithelial cells. We exposed freshly dissociated mammary epithelial cells to NODAL, LEFTY1, BMP7 and CRIPTO-1 in a modified Wnt-dependent in vitro organoid culture system that was optimized for progenitor cell propagation (Zeng & Nusse, Cell Stem Cell 6, 568-577 (2010) and Jamieson et al., Development 144, 1065-1071 (2017)). In Xenopus, Wnt signaling controls the expression of Nodal and Cripto-1 during gastrulation. Consistent with the evolutionary conservation of the interaction between the Nodal and Wnt pathways (Branford et al., Curr Biol 12, 2136-2141 (2002)), NODAL had no effect on organoid formation in our Wnt-driven culture system (FIG. 8A).
In organoid cultures, the basal cells give rise to mixed phenotype colonies of luminal and basal cells. To prevent the formation of LEFTY1-expressing cells during organoid formation, genetic knockdown of LEFTY1 was done. To knock-down mouse LEFTY1, pSICO-R lentiviral vector was used (Ventura, PNAS, 2004). Different shRNAs were designed and cloned into pSICO-R. The target sequences of the shRNAs cloned were GGACAAGGCTGATGTGGAA (SEQ ID NO: 14) and GCAGGTTCCTGGTGTCAGA (SEQ ID NO: 15). The efficiency of knock-down was tested by transfecting HEK293T cells with pSICO-R-shLEFTY1 constructs with pEGFP-C3-LEFTY1 at 1:4 and 1:20 ratio. Decrease on GFP signal was used to calculate the percentage of inhibition of the shLEFTY sequences. […] (p<0.001 and p<0.01, respectively) (FIGS. 8C-8D and FIGS. 9E-9F).

Molecule | pSMAD5 status (pSMAD5 [1]) | extent and number of mammary tree branches (mammary gland) | pSMAD2 expression (pSMAD2) | pSMAD5 in basal cells (pSMAD5 [2]) | pSMAD5 protein levels in luminal cells (pSMAD5 [2]) | organoid formation (frequency, number of colonies) (mammary epithelial cells) | organoid size (mammary epithelial cells)
B1 | reduces | significant localized increase | significant decrease | significant decrease | significant decrease | increased the number of colonies | –
B2 | activates pSMAD5 | decreased | no effect | significant increase | no effect | significantly decreased | significantly decreased
